# Experimental data from patent US20180244787A1 (Sanofi, published 2018).
# T1: recombinant human CXCR3 (human, UniProt P49682 1-368, limits assumed)
# T1 construct: also called C-X-C motif chemokine receptor 3
# T1 sequence (looked up): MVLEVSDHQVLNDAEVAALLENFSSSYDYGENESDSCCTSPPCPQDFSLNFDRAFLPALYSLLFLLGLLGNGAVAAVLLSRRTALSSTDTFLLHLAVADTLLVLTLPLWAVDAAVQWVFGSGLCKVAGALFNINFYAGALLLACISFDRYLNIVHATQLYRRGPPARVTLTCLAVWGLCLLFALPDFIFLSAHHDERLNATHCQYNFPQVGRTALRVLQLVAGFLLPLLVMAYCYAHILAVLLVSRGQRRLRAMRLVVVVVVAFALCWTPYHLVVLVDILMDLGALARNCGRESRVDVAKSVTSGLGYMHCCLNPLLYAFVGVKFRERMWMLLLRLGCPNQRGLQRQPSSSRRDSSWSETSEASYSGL
# Biological target: T1, recombinant human CXCR3
# Test: binding kinetics; method and antigen not given
Binder,Kd [nM],koff [s⁻¹],kon [M⁻¹ s⁻¹]
"humanized clone 53 HuAntibody 23 (antibody, V domains shown, humanized anti-human CXCR3 mAb) VH: EVQLLESGGGLVQPGGSLRLSCAASGFTFTSYAMSWVRQAPGKGLEWVAVISHGGTYTYYADSVKGRFTISRDNAKNTLYLQMNSLRAEDTAVYYCARHPIYSGNYQGYFDYWGQGTLVTVSS VL: DIQLTQSPSFLSASVGDRVTITCRASSGVNYLYWYQQKPGKAPKLWIYFTSTLAPGVPSRFSGSGSGNEYTLTISSLQPEDFATYYCQQFTSSPYTFGGGTKLEIK",0.322,2.45e-05,75600
"humanized clone 53 HuAntibody 31 (antibody, V domains shown, humanized anti-human CXCR3 mAb) VH: EVQLLESGGGLVQPGGSLRLSCAASGFTFTSYAMSWVRQAPGKGLEWVATISHGGTYTYYPDSVKGRFTISRDNAKNTLYLQMNSLRAEDTAMYYCARHPIYSGNYQGYFDYWGQGTLVTVSS VL: DIQLTQSPSFLSASVGDRVTITCRASSGVNYLYWYQQKPGKAPKLWIYFTSTLASGVPSRFSGSGSGNEYTLTISSLQPEDFATYYCQQFTSSPYTFGGGTKLEIK",0.449,5e-05,111000
"humanized clone 53 HuAntibody 26 (antibody, V domains shown, humanized anti-human CXCR3 mAb) VH: EVQLLESGGGLVQPGGSLRLSCAASGFTFTSYAMSWVRQAPGKGLEWVAVISHGGTYTYYADSVKGRFTISRDNAKNTLYLQMNSLRAEDTAVYYCARHPIYSGNYQGYFDYWGQGTLVTVSS VL: DIQLTQSPSFLSASVGDRVTITCRASSGVNYLYWYQQKPGKAPKLWIYFTSTLAPGVPSRFSGSGSGNEYTLTISSLQPEDFATYYCQQFTSSPYTFGQGTKLEIK",0.537,5.46e-05,101000
"humanized clone 53 HuAntibody 34 (antibody, V domains shown, humanized anti-human CXCR3 mAb) VH: EVQLLESGGGLVQPGGSLRLSCAASGFTFTSYAMSWVRQAPGKGLEWVAVISHGGTYTYYADSVKGRFTISRDNAKNTLYLQMNSLRAEDTAVYYCARHPIYSGNYQGYFDYWGQGTLVTVSS VL: DIQLTQSPSFLSASVGDRVTITCRASSGVNYLYWYQQKPGKAPKLWIYFTSTLASGVPSRFSGSGSGNEYTLTISSLQPEDFATYYCQQFTSSPYTFGQGTKLEIK",1.03,9.19e-05,88900
"humanized clone 53 HuAntibody 30 (antibody, V domains shown, humanized anti-human CXCR3 mAb) VH: EVQLLESGGGLVQPGGSLRLSCAASGFTFTSYAMSWVRQAPGKGLEWVAVISHGGTYTYYADSVKGRFTISRDNAKNTLYLQMNSLRAEDTAVYYCARHPIYSGNYQGYFDYWGQGTLVTVSS VL: DIQLTQSPSFLSASVGDRVTITCRASSGVNYLYWYQQKPGKAPKLWIYFTSTLASGVPSRFSGSGSGNEYTLTISSLQPEDFATYYCQQFTSSPYTFGGGTKLEIK",1.34,0.000126,93700
"humanized clone 53 HuAntibody 33 (antibody, V domains shown, humanized anti-human CXCR3 mAb) VH: EVQLLESGGGLVQPGGSLRLSCAASGFTFTSYAMSWVRQAPGKGLEWVATISHGGTYTYYPDSVKGRFTISRDNAKNTLYLQMNSLRAEDTAVYYCARHPIYSGNYQGYFDYWGQGTLVTVSS VL: DIQLTQSPSFLSASVGDRVTITCRASSGVNYLYWYQQKPGKAPKLWIYFTSTLASGVPSRFSGSGSGNEYTLTISSLQPEDFATYYCQQFTSSPYTFGGGTKLEIK",0.656,–,–
"humanized clone 53 HuAntibody 25 (antibody, V domains shown, humanized anti-human CXCR3 mAb) VH: EVQLLESGGGLVQPGGSLRLSCAASGFTFTSYAMSWVRQAPGKGLEWVATISHGGTYTYYPDSVKGRFTISRDNAKNTLYLQMNSLRAEDTAVYYCARHPIYSGNYQGYFDYWGQGTLVTVSS VL: DIQLTQSPSFLSASVGDRVTITCRASSGVNYLYWYQQKPGKAPKLWIYFTSTLAPGVPSRFSGSGSGNEYTLTISSLQPEDFATYYCQQFTSSPYTFGGGTKLEIK",0.623,6.21e-05,99500
"humanized clone 53 HuAntibody 29 (antibody, V domains shown, humanized anti-human CXCR3 mAb) VH: EVQLLESGGGLVQPGGSLRLSCAASGFTFTSYAMSWVRQAPGKGLEWVATISHGGTYTYYPDSVKGRFTISRDNAKNTLYLQMNSLRAEDTAVYYCARHPIYSGNYQGYFDYWGQGTLVTVSS VL: DIQLTQSPSFLSASVGDRVTITCRASSGVNYLYWYQQKPGKAPKLWIYFTSTLAPGVPSRFSGSGSGNEYTLTISSLQPEDFATYYCQQFTSSPYTFGQGTKLEIK",0.303,3.5e-05,115000

# Binders with a lower Kd, results first:
Kd [nM],koff [s⁻¹],kon [M⁻¹ s⁻¹],Binder
0.0737,8.34e-06,113000,"humanized clone 53 HuAntibody 27 (antibody, V domains shown, humanized anti-human CXCR3 mAb) VH: EVQLLESGGGLVQPGGSLRLSCAASGFTFTSYAMSWVRQAPGKGLEWVATISHGGTYTYYPDSVKGRFTISRDNAKNTLYLQMNSLRAEDTAMYYCARHPIYSGNYQGYFDYWGQGTLVTVSS VL: DIQLTQSPSFLSASVGDRVTITCRASSGVNYLYWYQQKPGKAPKLWIYFTSTLAPGVPSRFSGSGSGNEYTLTISSLQPEDFATYYCQQFTSSPYTFGQGTKLEIK"
0.0614,6.16e-06,101000,"humanized clone 53 HuAntibody 24 (antibody, V domains shown, humanized anti-human CXCR3 mAb) VH: EVQLLESGGGLVQPGGSLRLSCAASGFTFTSYAMSWVRQAPGKGLEWVATISHGGTYTYYPDSVKGRFTISRDNAKNTLYLQMNSLRAEDTAMYYCARHPIYSGNYQGYFDYWGQGTLVTVSS VL: DIQLTQSPSFLSASVGDRVTITCRASSGVNYLYWYQQKPGKAPKLWIYFTSTLAPGVPSRFSGSGSGNEYTLTISSLQPEDFATYYCQQFTSSPYTFGGGTKLEIK"
0.0456,4.73e-06,102000,"humanized clone 53 HuAntibody 35 (antibody, V domains shown, humanized anti-human CXCR3 mAb) VH: EVQLLESGGGLVQPGGSLRLSCAASGFTFTSYAMSWVRQAPGKGLEWVATISHGGTYTYYPDSVKGRFTISRDNAKNTLYLQMNSLRAEDTAMYYCARHPIYSGNYQGYFDYWGQGTLVTVSS VL: DIQLTQSPSFLSASVGDRVTITCRASSGVNYLYWYQQKPGKAPKLWIYFTSTLASGVPSRFSGSGSGNEYTLTISSLQPEDFATYYCQQFTSSPYTFGQGTKLEIK"
